# From patent publication US20250295803A1, “5T4 ANTIBODY-DRUG CONJUGATES AND USES THEREOF” (EXELIXIS, INC., priority 2022, published 2025)
# T1: cynomolgus 5T4 on cells (HEK-cyno-5T4, transfected HEK293 and CHO cells) (cynomolgus monkey, UniProt Q4R8Y9 35-420)
# T1 construct: also called HEK-cyno-5T4 cells
# T1 sequence: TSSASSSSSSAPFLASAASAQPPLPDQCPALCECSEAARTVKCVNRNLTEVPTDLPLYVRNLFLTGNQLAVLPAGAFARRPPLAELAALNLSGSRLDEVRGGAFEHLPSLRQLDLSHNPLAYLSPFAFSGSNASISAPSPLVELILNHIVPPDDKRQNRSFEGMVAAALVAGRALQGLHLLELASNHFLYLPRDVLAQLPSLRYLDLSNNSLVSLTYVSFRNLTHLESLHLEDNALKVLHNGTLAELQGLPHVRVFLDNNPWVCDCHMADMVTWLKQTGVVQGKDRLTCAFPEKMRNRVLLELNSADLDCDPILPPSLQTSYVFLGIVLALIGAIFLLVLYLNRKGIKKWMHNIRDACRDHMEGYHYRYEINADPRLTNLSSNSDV
# B1: mAbA17 (antibody, V domains shown)
# VH: EVQLVESGGGLVQPGGSLRLSCAASGFTFSRYWIHWVRQAPGKGLEWVAAIFPYSGSTLYADSVKGRFTISADTSKNTAYLQMNSLRAEDTAVYYCARSPSRSILPSGLDYWGQGTLVTVSS
# VL: DIQMTQSPSSLSASVGDRVTITCRASQSVSSAVAWYQQKPGKAPKLLIYSASSLYSGVPSRFSGSRSGTDFTLTISSLQPEDFATYYCQQGDGSPYTFGQGTKVEIKR
# notes: also called Antibody mAbA17
# Target: T1, cynomolgus 5T4 on cells (HEK-cyno-5T4, …)
# Assay: cell binding on transfected HEK293 and CHO cells
binder,measurement,value
B1,binding result,binds
